Biological target: T1, CD86Ig (UniProt P42081 24-247)
T1 construct: extracellular domain; Immobilized on BIAcore chips; also called soluble CD86Ig; B7-2
Assay: SPR, CD86Ig immobilized, monomer against dimer

T1 sequence (P42081 24-247): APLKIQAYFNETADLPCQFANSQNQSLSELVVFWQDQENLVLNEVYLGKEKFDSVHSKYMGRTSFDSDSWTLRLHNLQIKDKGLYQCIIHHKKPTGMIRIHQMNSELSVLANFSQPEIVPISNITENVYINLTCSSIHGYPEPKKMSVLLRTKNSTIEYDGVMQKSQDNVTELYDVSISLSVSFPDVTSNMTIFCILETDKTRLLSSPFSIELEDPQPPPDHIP

fold lower binding affinity than the respective dimer (L104EA29YIg): 35 to 80 fold
B1: L104EA29YXC120S (receptor)
chain: MHVAQPAVVLASSRGIASFVCEYASPGKYTEVRVTVLRQADSQVTEVCAATYMMGNELTFLDDSICTGTSSGNQVNLTIQGLRAMDTGLYICKVELMYPPPYYEGIGNGTQIYVIDPEPSPDSD
notes: also called single chain L104EA29Y extracellular domain

Source: patent US20070009511A1 (Bristol-Myers Squibb, published 2007)
